What follows are sequences tested on Escherichia coli TOP10 (assay: shrunken log2 fold change of peptide-encoding DNA abundance (4.5 h post-induction vs induction); higher = less antimicrobial activity (less host growth inhibition)). Conditions: time post-induction: 4.5 h; library: site-saturation at positions 5, 18, 19, 20.
With RRIRQRPPRLPRPRPRPRWIPRP the “shrunken log2 fold change” value was 0.274. In the case of RRIRSRPPRLPRPRPRPDVEPRP, the “shrunken log2 fold change” value is reported as 0.00664. RRIRTRPPRLPRPRPRPGINPRP was tested, and the “shrunken log2 fold change” value was -0.324. RRIRGRPPRLPRPRPRPRIYPRP was tested, and the “shrunken log2 fold change” value was 1.15. In the case of RRIRFRPPRLPRPRPRPAWSPRP, the “shrunken log2 fold change” value is reported as 0.116. RRIRSRPPRLPRPRPRPGDSPRP was tested, and the “shrunken log2 fold change” value was -0.0926. For RRIRVRPPRLPRPRPRPMRPPRP, the “shrunken log2 fold change” value was 0.544. In the case of RRIRKRPPRLPRPRPRPGGHPRP, the “shrunken log2 fold change” value is reported as 0.0505. RRIRTRPPRLPRPRPRPQRIPRP was tested, and the “shrunken log2 fold change” value was -0.131. With RRIRCRPPRLPRPRPRPGVVPRP the “shrunken log2 fold change” value was 0.147. RRIRHRPPRLPRPRPRPLRSPRP was tested, and the “shrunken log2 fold change” value was 0.549. RRIRVRPPRLPRPRPRPETRPRP was tested, and the “shrunken log2 fold change” value was 0.577. For RRIRLRPPRLPRPRPRPYFMPRP, the “shrunken log2 fold change” value was -0.855. With RRIRIRPPRLPRPRPRPQITPRP the “shrunken log2 fold change” value was -1.22. With RRIRHRPPRLPRPRPRPIVFPRP the “shrunken log2 fold change” value was -0.103. RRIRERPPRLPRPRPRPPWKPRP was tested, and the “shrunken log2 fold change” value was 0.0356. For RRIRIRPPRLPRPRPRPQSNPRP, the “shrunken log2 fold change” value was -0.197. In the case of RRIRMRPPRLPRPRPRPRVEPRP, the “shrunken log2 fold change” value is reported as 0.379. In the case of RRIRDRPPRLPRPRPRPQTNPRP, the “shrunken log2 fold change” value is reported as 0.118. With RRIRLRPPRLPRPRPRPFMVPRP the “shrunken log2 fold change” value was -0.606. In the case of RRIRQRPPRLPRPRPRPDFRPRP, the “shrunken log2 fold change” value is reported as 0.0259. For RRIRIRPPRLPRPRPRPLTHPRP, the “shrunken log2 fold change” value was -0.358. RRIRIRPPRLPRPRPRPKLKPRP was tested, and the “shrunken log2 fold change” value was -0.688. For RRIRSRPPRLPRPRPRPCDQPRP, the “shrunken log2 fold change” value was -0.0341. With RRIRRRPPRLPRPRPRPQCVPRP the “shrunken log2 fold change” value was 0.0427. For RRIRKRPPRLPRPRPRPSWCPRP, the “shrunken log2 fold change” value was -0.152. In the case of RRIRARPPRLPRPRPRPCADPRP, the “shrunken log2 fold change” value is reported as 0.734. RRIRWRPPRLPRPRPRPFKPPRP was tested, and the “shrunken log2 fold change” value was -0.231. For RRIRHRPPRLPRPRPRPEIAPRP, the “shrunken log2 fold change” value was -0.0585. In the case of RRIRYRPPRLPRPRPRPVWAPRP, the “shrunken log2 fold change” value is reported as 0.205. In the case of RRIRIRPPRLPRPRPRPQIFPRP, the “shrunken log2 fold change” value is reported as 0.0997. RRIRHRPPRLPRPRPRPMICPRP was tested, and the “shrunken log2 fold change” value was -0.163. For RRIRKRPPRLPRPRPRPGTMPRP, the “shrunken log2 fold change” value was 0.0526. With RRIRNRPPRLPRPRPRPCMLPRP the “shrunken log2 fold change” value was -0.306. With RRIRTRPPRLPRPRPRPVNVPRP the “shrunken log2 fold change” value was -0.172. In the case of RRIRRRPPRLPRPRPRPPWVPRP, the “shrunken log2 fold change” value is reported as 0.535. With RRIRSRPPRLPRPRPRPENTPRP the “shrunken log2 fold change” value was -0.258. RRIRVRPPRLPRPRPRPTAIPRP was tested, and the “shrunken log2 fold change” value was 0.12. With RRIRCRPPRLPRPRPRPLSYPRP the “shrunken log2 fold change” value was -1.29. RRIRVRPPRLPRPRPRPAMSPRP was tested, and the “shrunken log2 fold change” value was -0.096. RRIRARPPRLPRPRPRPISHPRP was tested, and the “shrunken log2 fold change” value was -0.131. In the case of RRIRFRPPRLPRPRPRPALMPRP, the “shrunken log2 fold change” value is reported as -0.0289. With RRIRNRPPRLPRPRPRPIRKPRP the “shrunken log2 fold change” value was -0.0111. For RRIRIRPPRLPRPRPRPLVNPRP, the “shrunken log2 fold change” value was -0.814. For RRIRSRPPRLPRPRPRPAKMPRP, the “shrunken log2 fold change” value was -0.0464. RRIRHRPPRLPRPRPRPSKRPRP was tested, and the “shrunken log2 fold change” value was 0.0594. For RRIRPRPPRLPRPRPRPEPSPRP, the “shrunken log2 fold change” value was 0.314. In the case of RRIRPRPPRLPRPRPRPANDPRP, the “shrunken log2 fold change” value is reported as -0.155. In the case of RRIRFRPPRLPRPRPRPDPRPRP, the “shrunken log2 fold change” value is reported as 0.182. For RRIRGRPPRLPRPRPRPQSPPRP, the “shrunken log2 fold change” value was 0.225. With RRIRMRPPRLPRPRPRPSRGPRP the “shrunken log2 fold change” value was 0.732. RRIRNRPPRLPRPRPRPNTIPRP was tested, and the “shrunken log2 fold change” value was -0.0529. RRIRRRPPRLPRPRPRPTVPPRP was tested, and the “shrunken log2 fold change” value was 0.0694. For RRIRYRPPRLPRPRPRPHPIPRP, the “shrunken log2 fold change” value was -0.0356. In the case of RRIRNRPPRLPRPRPRPGWIPRP, the “shrunken log2 fold change” value is reported as -0.265. RRIRHRPPRLPRPRPRPMFSPRP was tested, and the “shrunken log2 fold change” value was -0.256. With RRIRCRPPRLPRPRPRPGWHPRP the “shrunken log2 fold change” value was 0.269. RRIRARPPRLPRPRPRPRNIPRP was tested, and the “shrunken log2 fold change” value was 0.157. For RRIRPRPPRLPRPRPRPQHAPRP, the “shrunken log2 fold change” value was 0.041. With RRIRHRPPRLPRPRPRPGSQPRP the “shrunken log2 fold change” value was 0.0187. For RRIRDRPPRLPRPRPRPPVKPRP, the “shrunken log2 fold change” value was 0.421. For RRIRERPPRLPRPRPRPWHMPRP, the “shrunken log2 fold change” value was -0.0037. For RRIRFRPPRLPRPRPRPMERPRP, the “shrunken log2 fold change” value was -0.208. RRIRERPPRLPRPRPRPRCMPRP was tested, and the “shrunken log2 fold change” value was -0.355. For RRIRCRPPRLPRPRPRPNAFPRP, the “shrunken log2 fold change” value was 0.0246. RRIRMRPPRLPRPRPRPYWSPRP was tested, and the “shrunken log2 fold change” value was -0.186. For RRIRIRPPRLPRPRPRPYARPRP, the “shrunken log2 fold change” value was -1.22. For RRIRDRPPRLPRPRPRPNNQPRP, the “shrunken log2 fold change” value was -0.513. RRIRFRPPRLPRPRPRPWHVPRP was tested, and the “shrunken log2 fold change” value was -0.0433. RRIRLRPPRLPRPRPRPIWIPRP was tested, and the “shrunken log2 fold change” value was -0.134. With RRIRPRPPRLPRPRPRPPQRPRP the “shrunken log2 fold change” value was 0.43. In the case of RRIRQRPPRLPRPRPRPCLVPRP, the “shrunken log2 fold change” value is reported as -0.252. For RRIRIRPPRLPRPRPRPSMYPRP, the “shrunken log2 fold change” value was -1.53. For RRIRIRPPRLPRPRPRPAAHPRP, the “shrunken log2 fold change” value was -0.0526. For RRIRCRPPRLPRPRPRPHLYPRP, the “shrunken log2 fold change” value was 1.42.
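Note: peptides expressed intracellularly from a pBAD plasmid library in pooled LB shake-flask culture, induced with 0.3% L-arabinose, DNA abundance read by NGS, three biological replicates, DESeq2 with apeglm shrinkage.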
